Patent US20030148956A1 (PROCTER AND GAMBLE, published 2003)
Ends that are not written are not given here.

T1: corticotropin releasing factor 2 receptor
T1 sequence (Q13324 whole entry, species assumed, looked up): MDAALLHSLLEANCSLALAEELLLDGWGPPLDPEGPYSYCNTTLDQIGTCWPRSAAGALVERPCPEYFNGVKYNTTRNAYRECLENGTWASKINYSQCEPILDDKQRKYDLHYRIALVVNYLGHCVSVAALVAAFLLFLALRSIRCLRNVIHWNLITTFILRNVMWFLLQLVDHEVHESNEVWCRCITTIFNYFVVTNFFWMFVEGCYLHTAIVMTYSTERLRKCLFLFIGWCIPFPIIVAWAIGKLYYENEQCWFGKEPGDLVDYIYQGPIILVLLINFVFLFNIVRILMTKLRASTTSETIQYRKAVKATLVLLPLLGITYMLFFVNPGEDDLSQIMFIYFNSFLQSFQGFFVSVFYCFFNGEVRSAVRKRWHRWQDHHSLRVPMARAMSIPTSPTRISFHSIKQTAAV

B1: SEQ ID NO 385 (peptide)
peptide: DNPSLSIDVPLFLLRTLLELEKTQSQRERAEQNARIFARV-NH2
B2: SEQ ID NO 366 (peptide)
peptide: IVLSLDVPIGLLQILLEKAAAEAEAAAKAAQEQILAHV-NH2
B3: SEQ ID NO 369 (peptide)
peptide: IVLSLDVPIGLLQILLEQARHAHAHAHAHAQAHILAHV-NH2
B4: SEQ ID NO 363 (peptide)
peptide: ZGPPISIDLPFQLLRKAIEIEKQEKEKQQATTNARLLDRV
modifications: C-terminal amide
B5: SEQ ID NO 359 (peptide)
peptide: ZGPPISIDLPFQLLREVIEIEKQEKEKQQAANNALLLATI
modifications: C-terminal amide
B6: SEQ ID NO 217 (peptide)
peptide: ZGPPISIDLPFWLLRKMIEIEKQEKEKQQAANNRLLLDTI
modifications: C-terminal amide
B7: SEQ ID NO 383 (peptide)
peptide: ZGPPISIDVPFQLLRKVIEIEKQEKEKQQAANNARLLARI
modifications: C-terminal amide
B8: SEQ ID NO 382 (peptide)
peptide: ZGPPISIDVPFQLLRKVIEIEKQEKEKQQAANNARLLDTI
modifications: C-terminal amide
B9: SEQ ID NO 380 (peptide)
peptide: ZGPPISIDVPLQLLRKVIEIEKQEKEKQQAANNARLLDTI
modifications: C-terminal amide
B10: SEQ ID NO 361 (peptide)
peptide: ZGPPISIDLPFQLLRVLIEIEKQEKEKQQAANNALLLATI
modifications: C-terminal amide
B11: SEQ ID NO 365 (peptide)
peptide: ZGPPISIDLPFQLLRKAIEIEKQEKEKQQAANNALLLDTI
modifications: C-terminal amide
B12: SEQ ID NO 360 (peptide)
peptide: ZGPPISIDLPFQLLRLLIEIEKQEKEKQQAANNALLLATI
modifications: C-terminal amide
B13: SEQ ID NO 375 (peptide)
peptide: ZGPPISIDVPYQLLRKVIEIEKQEKEKQQAANNARLLARI
modifications: C-terminal amide
B14: SEQ ID NO 364 (peptide)
peptide: ZGPPISIDLPFQLLRKAIEIEKQEKEKQQAANNALLLATI
modifications: C-terminal amide
B15: SEQ ID NO 374 (peptide)
peptide: ZGPPISIDVPYQLLRKVIEIEKQEKEKQQAANNARLLDTI
modifications: C-terminal amide
B16: SEQ ID NO 212 (peptide)
peptide: ZGPPISIDLPHQLLRKMIEIEKQEKEKQQAANNRLLLDTI
modifications: C-terminal amide
B17: SEQ ID NO 381 (peptide)
peptide: ZGPPISIDVPLQLLRKVIEIEKQEKEKQQAANNARLLARI
modifications: C-terminal amide
B18: SEQ ID NO 362 (peptide)
peptide: ZGPPISIDLPFQLLRKIIEIEKQEKEKQQAANNALLLATI
modifications: C-terminal amide
B19: SEQ ID NO 358 (peptide)
peptide: ZGPPISIDLPFQLLRILIEIEKQEKEKQQAANNALLLAT
modifications: C-terminal amide
B20: SEQ ID NO 214 (peptide)
peptide: IVLSLDVVIGLLQILLEQARARAAREQATTNARILARV-NH2
B21: SEQ ID NO 370 (peptide)
peptide: IVLSLDVSIGLLQILLEQARARAAREQATTNARILARV-NH2
B22: SEQ ID NO 372 (peptide)
peptide: ZGPPISIDVPYWLLRKVIEIEKQEKEKQQAANNARLLDTI
modifications: C-terminal amide
B23: SEQ ID NO 373 (peptide)
peptide: ZGPPISIDVPYWLLRKVIEIEKQEKEKQQAANNARLLARI
modifications: C-terminal amide
B24: SEQ ID NO 215 (peptide)
peptide: ZGPPISIDLPYWLLRKMIEIEKQEKEKQQAANNRLLLDTI
modifications: C-terminal amide
B25: SEQ ID NO 376 (peptide)
peptide: ZGPPISIDVPYHLLRKVIEIEKQEKEKQQAANNARLLDTI
modifications: C-terminal amide
B26: SEQ ID NO 213 (peptide)
peptide: ZGPPISIDLPQWLLRKMIEIEKQEKEKQQAANNRLLLDTI
modifications: C-terminal amide
B27: SEQ ID NO 378 (peptide)
peptide: ZGPPISIDVPYYLLRKVIEIEKQEKEKQQAANNARLLARI
modifications: C-terminal amide
B28: SEQ ID NO 216 (peptide)
peptide: ZGPPISIDLPWWLLRKMIEIEKQEKEKQQAANNRLLLDTI
modifications: C-terminal amide
B29: SEQ ID NO 218 (peptide)
peptide: ZGPPISIDLPLWLLRKMIEIEKQEKEKQQAANNRLLLDTI
modifications: C-terminal amide
B30: SEQ ID NO 379 (peptide)
peptide: ZGPPISIDVPIYLLRKVIEIEKQEKEKQQAANNARLLARI
modifications: C-terminal amide
B31: SEQ ID NO 377 (peptide)
peptide: ZGPPISIDVPYHLLRKVIEIEKQEKEKQQAANNARLLARI
modifications: C-terminal amide
B32: SEQ ID NO 367 (peptide)
peptide: IVLSLDVPIGLLQILLEQARHAAAHAAAHAQAHILAHV-NH2
B33: SEQ ID NO 371 (peptide)
peptide: IVLSLDVPIHLLQILLEQARARAAREQATTNARILARV-NH2
B34: SEQ ID NO 387 (peptide)
peptide: DNPSLSIDVPLYLLRTLLELEKTQSQRERAEQNARIFARV-NH2
B35: SEQ ID NO 368 (peptide)
peptide: IVLSLDVPIGLLQILLEQARARAAREQATTNARILARVM-NH2
B36: SEQ ID NO 384 (peptide)
peptide: DNPSLSIDVPLLLLRTLLELEKTQSQRERAEQNARIFARV-NH2
B37: SEQ ID NO 386 (peptide)
peptide: DNPSLSIDVPFFLLRTLLELEKTQSQRERAEQNARIFARV-NH2

Assays:
[1] = molecular target: T1, corticotropin releasing factor 2 …; assay: cell-based or functional assay
[2] = molecular target: corticotropin releasing factor 1 receptor; assay: cell-based or functional assay

Binder	CRF2R EC50 [1] [nM]	CRF2R Emax % [1] [%]	CRF1R EC50 [2] [nM]	CRF1R Emax % [2] [%]
B1	10.2	100	1000	46
B2	100	46	1000	9
B3	100	18	1000	4
B4	25.1	100	1000	20
B5	23.1	100	230	100
B6	4.7	95	94.7	100
B7	9.31	96	1000	55
B8	39.5	100	1000	8
B9	19	100	1000	16
B10	6.37	99	149	100
B11	23.4	94	1000	21
B12	6.12	93	157	100
B13	11.5	100	1000	22
B14	13.2	100	1000	27
B15	15.8	91	1000	11
B16	21.3	100	445	100
B17	12.7	99	1000	27
B18	4.39	100	386	100
B19	5.56	100	99	100

Binder	CRF2R EC50 [1] [nM]	CRF2R Emax % [1] [%]	CRF1R EC50 [2] [nM]	CRF1R Emax % [2] [%]
B20	74.3	60	100	4
B21	51	75	1000	33
B22	14.2	100	1000	13
B23	11.5	100	1000	9
B24	4	100	188	100
B25	52.5	100	1000	8
B26	22.3	99	1000	76
B27	14.9	100	1000	36
B28	9.9	90	49.8	98
B29	4.8	96	98.4	100
B30	70.5	94	1000	8
B31	19.2	83	1000	25
B32	100	18	1000	6
B33	6.62	97	1000	22
B34	17.9	100	1000	50.1
B35	50.4		1000	
B36	7.1	97.3	1000	70.3
B37	8.7	96	1000	78.2
